Ends that are not written are not given here.
Tests used:
Assay type in all cases: cell-based
[1] = target: T1, α2M*/csGRP78 interaction (Homo sapiens, UniProt P01023); test: Intracellular calcium assay (Fura-2AM) in 1LN cells treated with α2M*
T1 construct: host or cells: 1LN prostate cancer cells (endogenous csGRP78); α2M* added from outside
T1 sequence (P01023 24-1474): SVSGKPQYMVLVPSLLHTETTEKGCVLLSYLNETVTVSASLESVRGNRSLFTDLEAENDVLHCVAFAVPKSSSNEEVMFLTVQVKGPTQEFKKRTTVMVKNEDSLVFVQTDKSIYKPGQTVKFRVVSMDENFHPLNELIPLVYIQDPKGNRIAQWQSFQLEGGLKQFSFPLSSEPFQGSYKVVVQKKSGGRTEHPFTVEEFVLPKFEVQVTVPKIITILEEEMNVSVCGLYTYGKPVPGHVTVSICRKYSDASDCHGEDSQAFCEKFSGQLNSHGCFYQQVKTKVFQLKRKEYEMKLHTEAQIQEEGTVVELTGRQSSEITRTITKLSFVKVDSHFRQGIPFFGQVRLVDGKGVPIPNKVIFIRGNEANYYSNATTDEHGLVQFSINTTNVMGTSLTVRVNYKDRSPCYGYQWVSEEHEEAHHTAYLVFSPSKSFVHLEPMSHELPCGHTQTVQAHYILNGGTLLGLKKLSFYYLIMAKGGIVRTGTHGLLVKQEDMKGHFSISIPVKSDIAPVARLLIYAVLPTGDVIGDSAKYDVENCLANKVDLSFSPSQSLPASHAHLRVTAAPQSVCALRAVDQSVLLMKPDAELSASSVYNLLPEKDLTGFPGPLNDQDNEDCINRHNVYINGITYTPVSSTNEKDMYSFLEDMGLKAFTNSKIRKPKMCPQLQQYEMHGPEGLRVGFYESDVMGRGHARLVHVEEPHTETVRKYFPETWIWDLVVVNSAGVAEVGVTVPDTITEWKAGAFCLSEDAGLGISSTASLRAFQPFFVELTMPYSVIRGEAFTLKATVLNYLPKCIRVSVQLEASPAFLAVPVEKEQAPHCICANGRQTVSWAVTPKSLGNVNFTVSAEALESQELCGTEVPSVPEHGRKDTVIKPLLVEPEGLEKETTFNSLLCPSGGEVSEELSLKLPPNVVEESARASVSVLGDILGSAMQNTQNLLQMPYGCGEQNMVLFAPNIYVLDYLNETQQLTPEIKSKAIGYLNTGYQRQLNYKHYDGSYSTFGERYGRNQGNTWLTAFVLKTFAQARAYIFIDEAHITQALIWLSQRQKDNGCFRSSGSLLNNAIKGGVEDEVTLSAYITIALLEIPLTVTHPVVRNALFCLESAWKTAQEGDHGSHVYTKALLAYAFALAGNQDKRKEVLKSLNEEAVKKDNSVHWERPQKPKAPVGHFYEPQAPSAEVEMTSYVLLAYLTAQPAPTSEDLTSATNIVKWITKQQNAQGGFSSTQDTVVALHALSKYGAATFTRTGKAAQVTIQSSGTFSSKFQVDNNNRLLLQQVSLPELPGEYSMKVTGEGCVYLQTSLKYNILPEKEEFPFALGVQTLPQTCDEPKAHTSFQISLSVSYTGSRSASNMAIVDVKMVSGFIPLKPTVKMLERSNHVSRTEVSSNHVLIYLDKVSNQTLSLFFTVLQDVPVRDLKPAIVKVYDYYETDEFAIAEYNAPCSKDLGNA
Protocol: (§1) Cell Culture-Primary mesangial cells (MC) were obtained from male C57BL/6 mice by glomerular sieving and cultured in Dulbecco's modified Eagle's medium (Sigma) supplemented with 20% fetal bovine serum, streptomycin (100 μg/mL) and penicillin (100 μg/mL). 1LN prostate cancer cells, which express high levels of csGRP78 (as described in Hart et al., J Biol Chem. 2002; 277 (44): 42082-42087) were cultured in RPMI 1640 supplemented with 10% fetal bovine serum (ThermoFisher). Cells were grown at 37° C. in 95% 02 and 5% CO2. The immortalized human proximal tubular cell line HK2 (ATCC, Burlington, Canada) was cultured in 10% FBS in DMEM/F12 medium. Primary rat renal fibroblasts (Cell Biologics, Burlington, Canada) and cultured in 10% FBS in DMEM/F12 medium. MC were serum deprived in medium with 1% bovine serum albumin (BSA) and HK2 and RF cells were starved in 0.5% FBS 24 h before treatment with HG (30 mM), mannitol (24.4 mM) as osmotic control or methylamine-activated α2M (100 pM). The peptide sequence in GRP78 to which α2M* binds was used to block their interaction (CLIGRTWNDPSVQQDIKFL) (Leu^98-Leu^115 with an additional N-terminal cysteine) (Gopal et al., J Biol Chem. 2016; 291 (20): 10904-10915). […]
Intracellular Calcium Assay—1LN cells were plated in a 96 black walled clear bottom plate and allowed to grow to confluence over 2 days. After loading with the calcium indicator Fura-2AM (5 μM, Abcam) in HBSS for 45 minutes at 37° C. in the dark, baseline fluorescence readings were taken every minute for 5 minutes using a temperature-controlled fluorescent microplate reader (Gemini EM Spectra Max, Molecular Devices) set to 340 and 380 nm excitation and 510 nm emission. After treatment with methylamine-activated α2M (100 pM) with or without antibody (Fα2M or control IgG, 2 μg) and with or without peptide or scrambled peptide (100 nM), readings were taken every minute for 15 minutes. Intracellular calcium concentrations were determined by calculating the ratio of fluorescence signal (340/380 nm).

[2] = target: T2, α2M*/csGRP78 interaction (Mus musculus, UniProt Q6GQT1); test: High glucose (HG)-induced profibrotic responses in primary mesangial cells (MC), immunoblotting; details: for HG-induced Akt activation (pAkt on S473) / HG-induced upregulation of fibronectin (FN), collagen (Col) IV and CTGF: MC, HG 48 h, peptides 100 nM; for HG-induced Akt activation (pAkt on S473): FIG. 4B; for HG-induced upregulation of fibronectin (FN), collagen (Col) IV and CTGF: FIG. 4C; for HG-induced profibrotic responses in MC: FIG. 11B, 11D
T2 construct: endogenous in cells; host or cells: primary mouse mesangial cells (C57BL/6)
T2 sequence (Q6GQT1 33-1474): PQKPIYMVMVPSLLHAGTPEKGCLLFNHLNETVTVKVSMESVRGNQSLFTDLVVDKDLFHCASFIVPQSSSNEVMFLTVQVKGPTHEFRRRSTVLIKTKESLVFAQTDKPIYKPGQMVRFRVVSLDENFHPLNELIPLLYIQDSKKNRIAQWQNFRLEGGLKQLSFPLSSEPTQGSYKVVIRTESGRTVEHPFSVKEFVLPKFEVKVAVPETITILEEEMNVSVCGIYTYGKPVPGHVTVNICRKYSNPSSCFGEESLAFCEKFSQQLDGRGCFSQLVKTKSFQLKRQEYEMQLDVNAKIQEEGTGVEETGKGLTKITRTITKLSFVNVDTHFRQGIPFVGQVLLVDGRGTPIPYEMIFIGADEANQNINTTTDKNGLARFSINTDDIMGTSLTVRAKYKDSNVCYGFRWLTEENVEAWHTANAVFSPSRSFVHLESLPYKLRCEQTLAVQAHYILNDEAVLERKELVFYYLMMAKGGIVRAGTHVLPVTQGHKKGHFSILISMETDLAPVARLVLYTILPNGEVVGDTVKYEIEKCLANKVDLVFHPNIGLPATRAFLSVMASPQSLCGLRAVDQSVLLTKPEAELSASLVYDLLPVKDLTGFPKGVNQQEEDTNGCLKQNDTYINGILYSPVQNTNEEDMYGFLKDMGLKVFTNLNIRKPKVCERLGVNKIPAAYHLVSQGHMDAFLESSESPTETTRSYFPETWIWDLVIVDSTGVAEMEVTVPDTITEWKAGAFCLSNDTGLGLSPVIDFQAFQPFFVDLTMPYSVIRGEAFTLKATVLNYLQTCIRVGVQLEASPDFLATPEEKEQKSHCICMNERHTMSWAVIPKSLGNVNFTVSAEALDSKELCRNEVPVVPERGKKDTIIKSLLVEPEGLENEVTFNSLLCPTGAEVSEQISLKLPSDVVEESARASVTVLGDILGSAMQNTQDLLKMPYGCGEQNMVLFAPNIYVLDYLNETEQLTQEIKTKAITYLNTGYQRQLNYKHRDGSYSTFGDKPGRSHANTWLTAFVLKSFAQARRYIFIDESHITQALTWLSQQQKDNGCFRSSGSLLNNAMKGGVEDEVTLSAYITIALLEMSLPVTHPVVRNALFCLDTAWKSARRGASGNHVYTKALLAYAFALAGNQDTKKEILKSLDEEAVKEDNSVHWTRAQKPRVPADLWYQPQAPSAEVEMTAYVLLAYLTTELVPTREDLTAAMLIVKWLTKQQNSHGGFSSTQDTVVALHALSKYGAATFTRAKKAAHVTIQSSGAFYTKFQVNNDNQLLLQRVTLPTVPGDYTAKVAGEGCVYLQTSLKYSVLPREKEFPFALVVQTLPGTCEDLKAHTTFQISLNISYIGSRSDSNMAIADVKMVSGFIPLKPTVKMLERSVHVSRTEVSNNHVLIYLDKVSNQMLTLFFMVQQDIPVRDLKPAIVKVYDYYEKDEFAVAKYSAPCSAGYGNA
Protocol: Cell Culture-Primary mesangial cells (MC) were obtained from male C57BL/6 mice by glomerular sieving and cultured in Dulbecco's modified Eagle's medium (Sigma) supplemented with 20% fetal bovine serum, streptomycin (100 μg/mL) and penicillin (100 μg/mL). 1LN prostate cancer cells, which express high levels of csGRP78 (as described in Hart et al., J Biol Chem. 2002; 277 (44): 42082-42087) were cultured in RPMI 1640 supplemented with 10% fetal bovine serum (ThermoFisher). Cells were grown at 37° C. in 95% 02 and 5% CO2. The immortalized human proximal tubular cell line HK2 (ATCC, Burlington, Canada) was cultured in 10% FBS in DMEM/F12 medium. Primary rat renal fibroblasts (Cell Biologics, Burlington, Canada) and cultured in 10% FBS in DMEM/F12 medium. MC were serum deprived in medium with 1% bovine serum albumin (BSA) and HK2 and RF cells were starved in 0.5% FBS 24 h before treatment with HG (30 mM), mannitol (24.4 mM) as osmotic control or methylamine-activated α2M (100 pM). The peptide sequence in GRP78 to which α2M* binds was used to block their interaction (CLIGRTWNDPSVQQDIKFL) (Leu^98-Leu^115 with an additional N-terminal cysteine) (Gopal et al., J Biol Chem. 2016; 291 (20): 10904-10915). The scrambled peptide, GTNKSQDLWIPQLRDVFI (SEQ ID NO: 4) was used as a control, with both peptides used at 100 nM (Cedarlane). Additional peptides were synthesized by Biomatik as follows: 1) peptide lacking the N-terminal cysteine, 2) peptide in which the cysteine was replaced by a methionine, 3) dimerized peptide via the cysteine (LFKIDQQVSPDNWTRGILC—S—S— CLIGRTWNDPSVQQDIKFL) (SEQ ID NO: 5) head to tail cyclization via an amide which leaves the cysteine intact.
Protein Extraction and Immunoblotting-Cells were lysed as described previously (Krepinsky et al. Nitric Oxide Inhibits Stretch-Induced MAPK Activation in Mesangial Cells Through RhoA Inactivation. Published online 2003. doi: 10.1097/01.ASN.00000940.85.04161.A7). Proteins were separated using SDS-PAGE followed by immunoblotting. Antibodies used were: α2M (1:1000, Bioss), mouse monoclonal F-α2M, which detects only conformationally changed α2M* as previously described (1:1000), pAkt S473 (1:1000, Cell Signaling), total Akt (1:1000, Cell Signaling),), pSmad3 Ser423/425 (1:4000, Novus), total Smad3 (1:1000, Abcam), phosphorylated focal adhesion kinase (pFAK) Tyr-397 (1:1000, Millipore, 07-012), FAK (1:1000, Santa Cruz Biotechnology, SC558), LRP1 (1:1000, Abcam), GRP78 (C20) (1:1000, Santa Cruz), platelet derived growth factor-β (PDGFR-β) (1:1000, Cedarlane), collagen IV (Col IV) (1:1000, Cell Signaling), fibronectin (FN) (1:1000, Abcam), connective tissue growth factor (CTGF) (1:1000, Santa Cruz), and tubulin (1:2000, Santa Cruz).

[3] = test system: csGRP78 interaction with α2M*; test: HG-induced profibrotic signaling and matrix production in human proximal tubular cell line HK2; details: proximal tubular cells; FIG. 8E
Protocol: as §1, with “10904-10915). The scrambled peptide, GTNKSQDLWIPQLRDVFI (SEQ ID NO: 4) was used as a control, with both peptides used at 100 nM (Cedarlane).” for “10904-10915).”

[4] = test system: csGRP78 interaction with α2M*; test: HG-induced profibrotic signaling and matrix production in primary rat renal fibroblasts; details: FIG. 8F
Protocol: as §1, with “10904-10915). The scrambled peptide, GTNKSQDLWIPQLRDVFI (SEQ ID NO: 4) was used as a control, with both peptides used at 100 nM (Cedarlane).” for “10904-10915).”

HG-induced Akt activation (pAkt on S473) [2]	HG-induced upregulation of fibronectin (FN), collagen (Col) IV and CTGF [2]	Substance	HG-induced profibrotic responses in MC [2]	other results
prevented HG-induced Akt activation	prevented	CLIGRTWNDPSVQQDIKFL [Pep]	–	release of intracellular calcium stores in response to α2M* ([1]; 1-LN cells, α2M* 100 pM, 15 min, peptides 100 nM, FIG. 4A): inhibited release of intracellular calcium stores; HG-induced Akt activation (Ser473) and ECM production [3]: attenuated; HG-induced Akt activation (Ser473) and ECM production [4]: attenuated
had no effect	had no effect	GTNKSQDLWIPQLRDVFI [Scr, scrambled control peptide, reference compound]	–	–
–	–	LFKIDQQVSPDNWTRGILC—S—S— CLIGRTWNDPSVQQDIKFL (also: homodimer via disulfide between the N-terminal cysteines of two copies) [Dimer Pep, dimerized peptide via the cysteine]	do not prevent HG-induced profibrotic responses	calcium signaling in 1LN cells induced by α2M* ([1]; FIG. 11C): do not inhibit calcium signaling
–	–	LIGRTWNDPSVQQDIKFL [Pep woC, peptide without an N-terminal cysteine residue in Leu98-Leu115]	does not prevent HG-induced profibrotic responses	calcium signaling in 1LN cells induced by α2M* ([1]; peptide tested at 100 pM and 100 nM, FIG. 11A): did not inhibit calcium signaling
